T1: Psy3 (S. cerevisiae, UniProt Q12318 1-242)
T1 sequence: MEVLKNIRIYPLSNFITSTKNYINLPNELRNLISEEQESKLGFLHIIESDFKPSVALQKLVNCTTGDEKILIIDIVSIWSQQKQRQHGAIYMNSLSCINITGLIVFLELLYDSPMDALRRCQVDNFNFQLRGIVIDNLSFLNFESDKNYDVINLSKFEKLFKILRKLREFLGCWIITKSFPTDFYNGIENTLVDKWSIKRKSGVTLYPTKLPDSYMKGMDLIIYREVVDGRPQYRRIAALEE

T2: His6-tagged Psy3-Csm2 heterodimer (S. cerevisiae, UniProt Q12318;P40465)
T2 sequence 1: T1 sequence
T2 sequence 2: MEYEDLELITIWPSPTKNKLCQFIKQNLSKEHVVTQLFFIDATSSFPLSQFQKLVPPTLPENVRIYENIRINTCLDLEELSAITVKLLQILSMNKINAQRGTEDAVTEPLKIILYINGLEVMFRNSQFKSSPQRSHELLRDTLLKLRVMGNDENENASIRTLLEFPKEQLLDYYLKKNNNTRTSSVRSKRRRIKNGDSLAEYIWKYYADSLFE

T3: His6-tagged Psy3Δ(1–7)-Csm2 heterodimer (S. cerevisiae, UniProt Q12318;P40465)
T3 sequence 1: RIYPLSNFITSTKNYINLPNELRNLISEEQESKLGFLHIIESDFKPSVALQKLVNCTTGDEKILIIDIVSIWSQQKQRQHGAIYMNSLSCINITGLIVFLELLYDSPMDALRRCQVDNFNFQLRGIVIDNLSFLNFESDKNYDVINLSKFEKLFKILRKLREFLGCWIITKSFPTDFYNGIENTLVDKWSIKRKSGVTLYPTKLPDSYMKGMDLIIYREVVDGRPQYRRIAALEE
T3 sequence 2: T2 sequence 2

B1: Csm2 (natural protein)
chain: T2 sequence 2
B2: His6-Shu2 (natural protein)
chain: MSKDVIEYSKLFAKLVNTNDDTKLDDTIASFLYYMFPRELFIRAISLLESSDMFIYILDRVHNKEGNEHTSLIDVLVDEFYKGSSNSLLEYRLIVKDTNDGAPPILVDIAHWFCSCEEFCKYFHEALEKTDEKEELHDVLINEVDDHLQFSDDRFAQLDPHSLSKQWYFKFDKVCCSHLLAFSILLRSSINVLKFFTVNSNKVFVIAIDNIDEWLNLHINIVE
B3: Shu1 (natural protein)
chain: MQFEERLQQLVESDWSLDQSSPNVLVIVLGDTARKYVELGGLKEHVTTNTVAGHVASRERVSVVFLGRVKYLYMYLTRMQAQANGPQYSNVLVYGLWDLTATQDGPQQLRLLSLVLRQCLSLPSKVEFYPEPPSSSVPARLLRFWDHIIR
B4: Shu2-Shu1 heterodimer (His6 tag removed) (complex)
chain 1: B2 chain
chain 2: B3 chain
B5: Shu2-Shu1(V51A) heterodimer (His6 tag removed) (complex)
chain 1: B2 chain
chain 2: B3 chain with V51A
B6: Shu2-Shu1(V51L) heterodimer (His6 tag removed) (complex)
chain 1: B2 chain
chain 2: B3 chain with V51L

Experiment [1] has as its target T1, Psy3. Briefly: crystal structure.
Experiment [2] has as its target B2. Description: pull-down.
Experiment [3] has as its target T2, His6-tagged Psy3-Csm2 heterodimer. Description: pull-down.
Experiment [4] addresses T3, His6-tagged Psy3Δ(1–7)-Csm2 heterodimer. Description: pull-down.

Changes are numbered by the printed parent chain. Names may count otherwise.

In the case of B1, the binding result in experiment [1] is “binds”. The same measure, in the same setting: in the case of B2 it was “binds”.

For B3, the binding result in experiment [2] and in experiment [1] was “binds” throughout. Take B4: the binding result in experiment [3] and in experiment [4] was “binds” throughout. Consider B5, for which, in experiment [3], the binding result is on record as “binds”.

For B6, in experiment [3], the binding result was “binds”.

For the origin of these results see publication PMC5727457 (Nucleic Acids Research, 2017).
